Test results as given in a protein production outcome set (Wang et al. 2014).

Test: label from the status in PepcDB records

## MAQNPERRAALVNAAIEVLAREGARGLTFRAVDVEANVPKGTASNYFPSRDDLFDQVGKRIHERLGPDPSVVEESGRKPQNLELAIEYMQGLFGRITRDRTGYLALQELRLEAVRRPELRTTLTRTISENLKRDIGFHLDSGLPGDRSTVLMLYLAMNALIVEHLTLPGVLEGVDTERLVADLVTRAVATPDA
  protein production: not failed

## MLSRLSLLSNSRAFQQARWRIYRLKVSPTVHASQYHILSGRKLAQSIREKANDEIQAIKLKHPNFKPTLKIIQVGARPDSSTYVRMKLKASKDSNVDCIIEKLPAEITEVELLKKISDINDDDSIHGLLIQLPLPRHLDETTITNAVDFKKDVDGFHRYNAGELAKKGGKPYFIPCTPYGCMKLLEEAHVKLDGKNAVVLGRSSIVGNPIASLLKNANATVTVCHSHTRNIAEVVSQADIVIAACGIPQYVKSDWIKEGAVVIDVGINYVPDISKKSGQKLVGDVDFDSVKEKTSYITPVPGGVGPMTVAMLVSNVLLAAKRQFVESEKLPVIKPLPLHLESPVPSDIDISRAQSPKHIKQVAEELGIHSHELELYGHYKAKISPNIFKRLESRENGKYVLVAGITPTPLGEGKSTTTMGLVQALSAHLGKPSIANVRQPSLGPTLGVKGGAAGGGYAQVIPMDEFNLHLTGDIHAISAANNLLAAAIDTRMFHEATQKNDSTFYKRLVPRKKGIRKFTPSMQRRLKRLDIEKEDPDALTPEEVKRFARLNINPDTITIRRVVDINDRMLRQITIGEAATEKGFTRTTGFDITVASELMAILALSKSLHEMKERIGRMVIGADYDNKPVTVEDIGCTGALTALLRDAIKPNLMQTLEGTPVMVHAGPFANISIGASSVIADLMALKLVGSEKNPLNDKNIHEPGYVVTEAGFDFAMGGERFFDIKCRSSGLVPDAVVLVATVRALKSHGGAPNVKPGQSLPKEYTEENIDFVAKGVSNLVKQIENIKTFGIPVVVAINRFETDSQAEIEVIKKAALNAGASHAVTSNHWMEGGKGAVELAHAVVDATKEPKNFNFLYDVNSSIEDKLTSIVQKMYGGAKIEVSPEAQKKIDTYKKQGFGNLPICIAKTQYSLSHDPSLKGVPRGFTFPIRDVRASIGAGYLYALAAEIQTIPGLSTYAGYMAVEVDDDGEIEGLF
  protein production: failed

## MGTLTCKDLNHKYRDTTMYKQQQIKQWFCGLSSITCQHISDWQKPHLGVLCAASAFLVLAAPVVNLPGSKLLAQTPISRDLETASFYQQGVTRYNRSDWQGAENAFRQALQREPNLAMARAYLGNIYLMQNRLDVAVQEYGEAIRLNPNLGETYYNLGLALQQQGKKEGAITAYRQALVIDPRRVEAYYNLGLVLYEQGLLQEAIAAYQDAVNLEPSKINAHHNLAIALQQTGKMEEAIVAYREVLKLDPKNAAAYSSLGSLMAMQGRPEEAIAAYTQAVRQDPKNALAYYNLGITLYNQGELQKASNAFKRAQEEYSQQGNLEQTEKTEQLMQQVAQKIEEQKLQQRQASTPKPTDNSTNNLLEKLTQLTAPKEQPANSGAVPVSDEQKQFPPIFPNTNSR
  protein production: failed

## MARTLFLEEGPMFFEKIAPYTYRIPRQGKMRVDAVFFASKEILKDLEAENYASLQQLMNVATLPGIVEPALAMPDIHWGYGFPIGGVAAFDPEEGGVVSPGGVGFDINCGVRLLASHLTLEDLLPRQKELADALYRLVPSGVGSERRDVRFSKRELKEILKEGAGWLVKRGYGYPEDVRFIESQGRLPWANPDKVSERAFERGAPQIGTLGSGNHFLEVQYVDEVYDEEAALAFGLFKGQVTVLIHTGSRGLGHQVCQDYVERFLKVAPRYGIELVDKQLAAAPIKSPEGQDYLQAMAAAANFAFANRQLIAHFVREAFEKVGFTPRDHGLRVLYDLAHNNAKFEEHRGRRVLVHRKGATRAFGPGHPEVPEEYRRVGQPVLVPGDMGRYSYVLAGTEKAMEVSFGSSCHGAGRKMSRHQAKKVARERNLVKELAERGILVRAATRATVDEEMPEAYKDVSLVVEAVEGAGIGKKVARLRPLIVVKG
  protein production: not failed

## MATAENTELIDRFEEFYRNYYRNEIGELAQKYPNDQKSLYIDWDDLYRFDPDLADDYRTKPEQIQEYAEEALRLYDLPVDVSLGQAHVRVRNLPESEDIRDLRHEHHGNLVAVRGIIRKATDVRPKVIEAAFECQRCGTLTRIPQTAGDFQEPHDCQGCERQGPFRLNTDQSQFIDAQKLRVQESPEGLRGGETPQSIDINIEDDITGHVTAGDHVRVTGILKLDQRGNDNEKSPMFDIYMEGVSVEIEDEQFEDMEITDADKTEIVELSSEPDIYDKMVGAIAPSIYGYEKEKLAMMLQLFSGVTKELPDGSRIRGDLHMLLIGDPGTGKCVHGDTRVTLADGHERPIREVVESNLDDPKPVDDGVWDTVDFDVPSLQSDGTVATQNATKVWKRKAPETLYRIRTATGRELDVTPSHPLFVQSDGRFQARKAEELESGTHVAVPRKVSTNACNELDVTFRQSQAHNRIDLDLPPQWTPELARLIGYIVAEGYVEQRPDNTGYVSITNNDREVLDDAKSVLETLNLNVTERSSHEGKTARELLCSAGEFVSFLASLDETLLQSSAERRVPQDIMRASDNVVTGFIRGYIEGEGHVSTSQREITVASMSKPLLEDVRTLLVTQGITAQLQPRNNGSYRLRISGQSFHDYAEQIGFITARKTEACRQFEGTHGNTNLDIVPNLGPELRRIREALGLTQSECGLPRSTYQHYERGRRNPSRDSLESVLDAFETRLAEMNNDTPISDTARSDGGGTGSLRQDLNGLAALVEGDIAWDRIESIEPIEHDEKWVYDLEIEGTHNYLTNGVVSHNSQMLSYIENIAPRSVYTSGKGSSSAGLTAAAVRDDFGDGQQWTLEAGALVLADQGIAAIDELDKMSPEDRSAMHEALEQQRISVSKAGINATLKSRCSLLGAANPKYGRFDQYEPIGEQIDLEPALISRFDLIFTVTDKPDEEKDRNLAEHIIQTNYAGELHTHRTENPTSNFSEEEVGTVTEEVAPTIEPDLLRKYVAYAKRNCFPTMTEEAKSRIEDFYVDLRLKGQDEDAPVPVTARKLEALVRLAEASARIRLSDTVDEADADRAVDIAHYCLKEIGVDPETGEFDADVVETGQSKTQRDRIQNIKGIISDIEDEYDEGAPADVVIERAEEVGIDESKAEHEIDKLKQKGEVYEPRTDHLRTT
  protein production: failed

## MHELSISRHIAAPPGKVWDVLANRQEEWWCPRPWWITLIAQERRPGGRSAMVMHGPDGEEMPQEGIFLAWDEGHRFVTTDAVTADFLPAGPFMVGIWEVEPEGEGTRYTASARHWTEEAMREHAEMGFEAGWNACADQLQALCEAD
  protein production: failed

## MKLGVNLCFAVKRWLEPDRLAGLVRDDLGLEYVQYTYDLTDPWWPDIERDRRAIAYAKAFRKAGLTIESTFGGLASYTYNHFLAPTLELQSLGYQHLKRAIDMTAAMEVPATGMPFGSYSAADALNPARREEIYAIARDMWIELAAYAKRQGLSMLYVEPVPLATEFPSSAADAARLMADLDGRTEIPVRLLVDWGHALFEPLFGPEADMDHWMDLCQPWIAAYHIQQTDGQLDRHWSFTQPGVVTPQRLQDFWDKYALTDQTFFAEILYPFEARDEDVLADMIASVKALKAASPAA
  protein production: not failed

## MMSFSQIINDFIQSFSSINLGGNFKEIVTNPLTILTLIGVLIILVLLIKAKDIKFDAKMLTTIGIALALTAVLNMLKIYKFPQGGGITLGSMIPIILIAYAYGPLVGMLTGFLFGIISLFIDPYILHPVQVLFDYPIPYMALGVAGFFKNHRISGAVVAIFLKFLAHFISGVVFFGSFAPEGMSPILYSFLVNGSLIGADGLICVVLLGILPVNRLIKAISSKSVTSKYAS
  protein production: failed

## MKKNKIGGSQSMFNKVWFRTGIFFIMLFILIKLFMEVHEVFAPIATIIGSVFLPFLISGFLFYICLPFQNILEKWGFPRWASITTIFIGLIVIIAIVVSFIAPIIISNINNLIKQTPSLQKEAEQLINFSLRQMDKLPDDVTHRINKAVKSMGDGATSILSNSVSYITSFISTVFLLIMVPFFLIYMLKDHEKFIPAIGKFFKGERKVFVVDLLKDLNFTLKSYIQGQVTVSIILGIILYIGYTIIGLPYTPLLVLFAGVANLIPFLGPWLSFAPAAILGIIDGPSTFIWVCVVTLIAQQLEGNVITPNVMGKSLSIHPLTIIVVILAAGDLGGFTLILVAVPLYAVIKTLVSNIFKYRQRIVDKANSNVKD
  protein production: failed

## MDVLTDQDVQKFRDEGYLVLEGLLSPEECDALRRRMSEIIESMDVPEHCRTQFSTDHDEQLKTQGNADYFITSGDKIRFFFEKGVFDDKGEFVVPKEQSLNKIGHALHAYEPLFKRVTHSPKVQNICKKLELINPVILQSMYIFKQPGIGGEVTPHQDATFLYTQPLGRVMGVWVALEDAMQENGCLWFIPGSHNDGITRRMVRTPKGTFPLTDFIGREKDYDDKLFVPAPVKKGGAVLIHGEVVHRSAANTSDASRHVYTFHIMESENTVWSPENWLQATEELPFPSLYT
  protein production: failed

## MIQLRAISRGMICGLLLSQLWSCSSTPLEPTAIEVDALFDDSLFKPVTNIPSVEDIFSLPSSVAVDVKRTYDRYAISTKNPLAVHEWLASYINANQSNGHSDFRYQDNLTQTASETFEQRAGNCMSLVVMTSALADIFNIGTEFQDIAIEPVWDKQGDFYLINGHVNLRLLPAQSVHTVYVSTHAILVDFMPERALRGLAKVQINRQTLTAMFYNNMAAESLVEGDLDHAYALVKAGLKSGHFSPALNTLAVIYRHKGDEKRAEQVYRYALKFDPDDMTTLFNLAVILDNQGRLEEWAQIHKKLELARIRNPYYYYDMGEQAYDEHQYREALAWYQRAVDKADYRHEFFFGLSRTYWALGDEKRAKQNMEKALALSREAADKHRCQAKLQAMRQH
  protein production: failed

## MSLSNVFYRSSKPYPVAVRGEGVFLYDDAGRRYLDGSSGALVANIGHGRAEVGERMAAQAARLPFVHGSQFSSDVLEEYAGRLARFVGLPTFRFWAVSGGSEATESAVKLARQYHVERGEPGRFKVITRVPSYHGASLGSLAASGMGARRELYTPLMRPEAWPKLPKPDPARNGAEDAEGLRALLEREGPETVAAFMAEPVVGASDAALAPAPGYYERVRDICDEAGIIFIADEVMSGMGRCGSPLALSRWSGVTPDIAVLGKGLAAGYAPLAGLLAAPQVYETVMGGSGAFMHGFTYAGHPVSVAAGLSVLDIVEREDLTGAAKERGAQLLAGLQALQARFPQMMQVRGTGLLLGVVLGDLATGQAFETPGIASRIGAAALKRGLITYPGSGAEPNGRGDHLLLGPPLSITAAEVDGLLALLAGALEDVLGEGHHHHHH
  protein production: not failed

## MTKRHVSLPADAKDVRRAFVSGVDERLSAAETPDELATAVTGTLADLRGERDAYEAWRDGDDVRPAAAARLATLDPRNASLESEYYAEKDEAAFARSKPLQWLWRQFDTTPLADNVDVALPFRRMLAGHLFAGVGEDVRLFKGITMTYGHNIELGDNAVVHDGVHLDDRGELVVGARASVSNGAHLYTHDHDVVDQTDVTNYRTEIGADARVTQGALVRAGVRVGENALVGSRSVVQGDVPAHHIAVGSPAESVRVKPGWEAVAAPLDAGGERRQAERRLDDAVPADAAVYDEFQRDRSPPGER
  protein production: failed

## MTQVIIDGDACPVTNSIIELTKGTGIFVTVVRSFSHFSTVIQPEHVNIIYVDDGPDAVDYRIVKLVHSDDLVVTQDYGLASLLLNKAKIVMHHKGLEHHHHHH
  protein production: failed

## MNTYAQESKLRLKTKIGADGRCVIEDNFFTPPFKLMAPFYPKDDLAEIMLLAVSPGMMRGDAQDVQLNIGPNCKLRITSQSFEKIHNTEDGFASRDMHIVVGENAFLDFAPFPLIPFENAHFKGNTTISLRSSSQLLYSEIIVAGRVARNELFKFNRLHTKISILQDEKPIYYDNTILDPKTTDLNNMCMFDGYTHYLNLVLVNCPIELSGVRECIEESEGVDGAVSETASSHLCVKALAKGSEPLLHLREKIARLVTQTTTQKV
  protein production: failed

## MNEQRLSMRLERVATHVPAGARLADIGSDHGYLPVALLNRGAVSAAVAGEVALTPFYAAERTVRENDLDQQISVRLADGLAAIEPTDRITAISLCGMGGETIRDILESGKARLSGQERLILQPNGGEQPLRVWLMEHNYRILDEEVLRENRFDYEIIVAERTGPMIYTAEQLYFGPIQMQTRSPAFLLKWQRLLGKKHKALSNFARARKAVPEEKMQDLAQQIRWITALLN
  protein production: failed
